In experiment [1] the target is T1, human MAdCAM expressed on cells (human, UniProt Q13477 19-382).
T1 construct: whole, on cells; also called MADCAM1
T1 sequence (looked up): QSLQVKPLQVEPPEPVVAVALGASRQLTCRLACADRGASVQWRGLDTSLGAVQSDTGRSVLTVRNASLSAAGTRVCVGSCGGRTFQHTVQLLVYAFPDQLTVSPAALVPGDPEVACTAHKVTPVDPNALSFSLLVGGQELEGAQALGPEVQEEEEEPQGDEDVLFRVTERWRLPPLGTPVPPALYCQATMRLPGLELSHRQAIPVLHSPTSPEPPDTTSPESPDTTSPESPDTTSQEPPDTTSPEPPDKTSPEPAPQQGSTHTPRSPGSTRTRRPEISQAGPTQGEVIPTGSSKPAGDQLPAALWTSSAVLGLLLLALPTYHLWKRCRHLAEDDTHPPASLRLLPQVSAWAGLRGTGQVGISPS
Nature of the experiment: cell binding.

The target in experiment [2] is T2, mouse MAdCAM expressed on cells (mouse, UniProt Q61826 22-405).
T2 construct: whole, on cells
T2 sequence (looked up): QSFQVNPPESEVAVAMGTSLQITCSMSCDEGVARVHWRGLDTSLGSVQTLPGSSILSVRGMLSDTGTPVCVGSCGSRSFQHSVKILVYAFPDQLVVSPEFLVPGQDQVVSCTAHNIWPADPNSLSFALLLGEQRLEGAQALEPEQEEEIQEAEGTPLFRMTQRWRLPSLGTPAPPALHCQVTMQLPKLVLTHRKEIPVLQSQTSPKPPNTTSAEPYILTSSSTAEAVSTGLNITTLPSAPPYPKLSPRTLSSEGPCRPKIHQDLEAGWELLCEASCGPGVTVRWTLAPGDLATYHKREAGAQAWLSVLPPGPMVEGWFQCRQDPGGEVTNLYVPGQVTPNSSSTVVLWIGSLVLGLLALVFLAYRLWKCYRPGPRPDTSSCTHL
In words: cell binding.

Positions count from the first letter of the chain named.

B1: MAdCAM antibody Clone ID 57 of Table 7 (IgG) (antibody, V domains shown)
VH: EVQLLESGGGLVQPGGSLRLSCAASGFSVSSNYMSWVRQAPGKGLEWVAGISYDGSSKPYADSVKGRFTISRDNSKNTLYLQMNSLRAEDTAVYYCARSRGIAARPLQHWGQGTLVTVSS
VL: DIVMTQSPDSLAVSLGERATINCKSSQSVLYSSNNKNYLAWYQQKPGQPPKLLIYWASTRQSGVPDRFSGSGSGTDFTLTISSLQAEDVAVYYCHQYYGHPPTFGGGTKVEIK
notes: IgG format
For B1, the binding result in experiment [1] is on record as “binds”; in experiment [2] it was “no binding”.

B2: MAdCAM antibody Clone ID 38 of Table 7 (IgG) (antibody, V domains shown)
VH: QVQLVQSGAEVKKPGASVKVSCKASGYTFTDYFLHWVRQAPGQGLEWMGWMNPTSGNTGYAQKFQGRVTMTRDTSTSTVYMELSSLRSEDTAVYYCAREGEGSGFDYWGQGTLVTVSS
VL: DIQMTQSPSSLSASVGDRVTITCRASQGINSWLAWYQQKPGKAPKLLIYDASNLETGVPSRFSGSGSGTDFTLTISSLQPEDFATYYCQQSYSTPLTFGGGTKVEIK
notes: IgG format
Consider B2, for which the results for the binding result in experiment [1] and in experiment [2] were “binds” and “no binding”, respectively.

B3: MAdCAM antibody Clone ID 44 of Table 7 (IgG) (antibody, V domains shown)
VH: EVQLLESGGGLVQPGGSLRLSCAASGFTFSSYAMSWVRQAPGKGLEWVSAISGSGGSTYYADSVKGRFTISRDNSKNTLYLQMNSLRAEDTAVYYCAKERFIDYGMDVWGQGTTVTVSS
VL: DIQMTQSPSSLSASVGDRVTITCQASQDISNYLNWYQQKPGKAPKLLIYAASSLQSGVPSRFSGSGSGTDFTLTISSLQPEDFATYYCQQTYSGWTFGPGTKVDIK
notes: IgG format
B3: the binding result in experiment [1] is “binds”; in experiment [2] it was “no binding”.

B4: MAdCAM antibody Clone ID 15 of Table 7 (IgG) (antibody, V domains shown)
VH: QVQLVQSGAEVKKPGASVKVSCKASGYTFTGYYMHWVRQAPGQGLEWMGWIGPNSGDTNYAQKFQGRVTMTRDTSTSTVYMELSSLRSEDTAVYYCARDLDHNWYFDLWGRGTLVTVSS
VL: DIVMTQSPLSLPVTPGEPASISCRSSQSLLHSNGYNYLDWYLQKPGQSPQLLIYSSSNRAPGVPDRFSGSGSGTDFTLKISRVEAEDVGVYYCMQALHIPLTFGGGTKVEIK
notes: IgG format
In the case of B4, the binding result in experiment [1] is “binds”; in experiment [2], “no binding”.

B5: MAdCAM antibody Clone ID 16 of Table 7 (IgG) (antibody, V domains shown)
VH: EVQLLESGGGLVQPGGSLRLSCAASGFTFDDYAMHWVRQAPGKGLEWVSYIDASGTTIYYADSVKGRFTISRDNSKNTLYLQMNSLRAEDTAVYYCAKDQAAAGYWYFDLWGRGTLVTVSS
VL: DIQMTQSPSSLSASVGDRVTITCQASQDISNYLNWYQQKPGKAPKLLIYKASTLESGVPSRFSGSGSGTDFTLTISSLQPEDFATYYCQQSYSTPITFGQGTRLEIK
notes: IgG format
With B5, the binding result in experiment [1] was “binds”; in experiment [2] it was “no binding”.

B6: MAdCAM antibody Clone ID 19 of Table 7 (IgG) (antibody, V domains shown)
VH: EVQLLESGGGLVQPGGSLRLSCAASGFTFEDYAMHWVRQAPGKGLEWVSYLNSDGGSTSYADSVKGRFTISRDNSKNTLYLQMNSLRAEDTAVYYCAKDYCTNGVCAFDYWGQGTLVTVSS
VL: B5 VL with Q24R, D28S, N31T, K50D, T53N, S56T, S93T, T94I
notes: IgG format
Consider B6, for which the figures for the binding result in experiment [1] and in experiment [2] were “binds” and “no binding”, respectively.

B7: MAdCAM antibody Clone ID 37 of Table 7 (IgG) (antibody, V domains shown)
VH: EVQLLESGGGLVQPGGSLRLSCAASGFTFSDYGMPWVRQAPGKGLEWVSAISGSGGSTYYADSVKGRFTISRDNSKNTLYLQMNSLRAEDTAVYYCARDGGWQPAAILDYWGQGTLVTVSS
VL: B2 VL with N30S, S31N, W32N, A34N, G100Q
notes: IgG format
For B7, the binding result was “binds” in experiment [1] and “no binding” in experiment [2].

B8: MAdCAM antibody Clone ID 39 of Table 7 (IgG) (antibody, V domains shown)
VH: QVQLVQSGAEVKKPGASVKVSCKASGYTFTSYYMHWVRQAPGQGLEWMAWMNPNSGNTGYAQKFQGRVTMTRDTSTSTVYMELSSLRSEDTAVYYCARDYDFWSGSLGYWGQGTLVTVSS
VL: B5 VL with Q24R, D28G, N34A, K50A, T53S, E55Q, I96W, R103K, L104V
notes: IgG format
For B8, the binding result is recorded as “binds” in experiment [1] and “no binding” in experiment [2].

B9: MAdCAM antibody Clone ID 25 of Table 7 (IgG) (antibody, V domains shown)
VH: EVQLLESGGGLVQPGGSLRLSCAASGFTFSNAWMSWVRQAPGKGLEWVSTIVGNGGATYYADSVKGRFTISRDNSKNTLYLQMNSLRAEDTAVYYCARDNPLRWQGMDVWGQGTLVTVSS
VL: B5 VL with Q24R, K50A, T53S, E55Q, T94I, I96P, Q100P, R103K, L104V, E105D
notes: IgG format
On to B9, for which the figures for the binding result in experiment [1] and in experiment [2] were “binds” and “no binding”, respectively.

B10: MAdCAM antibody Clone ID 59 of Table 7 (IgG) (antibody, V domains shown)
VH: B7 VH with T28S, P35H
VL: B2 VL with N30S, S31N, W32N, A34N
notes: IgG format
Take B10: the binding result in experiment [1] is “binds”; in experiment [2], “no binding”.

B11: MAdCAM antibody Clone ID 18 of Table 7 (IgG) (antibody, V domains shown)
VH: QVQLVQSGAEVKKPGSSVKVSCKASGYTFTNYYMHWVRQAPGQGLEWMGGIIPIVDRVKYAQKFQGRVTITADESTSTAYMELSSLRSEDTAVYYCAKGRYTVNYYYGMDVWGQGTTVTVSS
VL: B5 VL with S26N, K50R, T53K, S56A, Y92S, S93E, T94I, I96Y, T97S, R103K
notes: IgG format
Consider B11, for which the binding result in experiment [1] was “binds”; in experiment [2], “no binding”.

B12: MAdCAM antibody Clone ID 52 of Table 7 (IgG) (antibody, V domains shown)
VH: EVQLLESGGGLVQPGGSLRLSCAASGFTFDDYGMSWVRQAPGKGLEWVSYISSSSSYIYYADSVKGRFTISRDNSKNTLYLQMNSLRAEDTAVYYCAREIAAAGFYGMDVWGQGTTVTVSS
VL: not shown
notes: IgG format
As for B12, the binding result is given as “binds” in experiment [1] and “no binding” in experiment [2].

B13: MAdCAM antibody Clone ID 21 of Table 7 (IgG) (antibody, V domains shown)
VH: EVQLVESGGGLVKPGGSLRLSCAASGFTFSSYWMSWVRQAPGKGLEWVSYISGDSGYTNYAAPVKGRFTISRDDSKNTLYLQMNSLKTEDTAVYYCARANSSGWYDWYFDLWGRGTLVTVSS
VL: not shown
notes: IgG format
Take B13: the binding result was “binds” in experiment [1] and “no binding” in experiment [2].

B14: MAdCAM antibody Clone ID 34 of Table 7 (IgG) (antibody, V domains shown)
VH: QVQLVQSGAEVKKPGASVKVSCKASGYTFTGYYIHWVRQAPGQGLEWMGWMNPNSGNTGYAQKFQGRVTMTRDTSTSTVYMELSSLRSEDTAVYYCARDPGFLGYCSGGSCYDGWFDPWGQGTLVTVSS
VL: DIQMTQSPSSLSASVGDRVTITCRASQSISSYLHWYQQKPGKAPKLLIYAASSLQSGVPSRFSGSGSGTDFTLTISSLQPEDFATYYCQQSYTAPYTFGQGTKLEIK
notes: IgG format
Turning to B14, the results for the binding result in experiment [1] and in experiment [2] were “binds” and “no binding”, respectively.

B15: MAdCAM antibody Clone ID 43 of Table 7 (IgG) (antibody, V domains shown)
VH: QVQLVQSGAEVKKPGASVKVSCKASGYTFTSYGISWVRQAPGQGLEWMGWMHPKSGDTGLTQKFQGRVTMTRDTSTSTVYMELSSLRSEDTAVYYCARDTPYYYYGMDVWGQGTTVTVSS
VL: B14 VL with Y32W, H34A, T93S, A94V, Y96I, L104V
notes: IgG format
As for B15, the binding result in experiment [1] is given as “binds”; in experiment [2] it was “no binding”.

B16: MAdCAM antibody Clone ID 41 of Table 7 (IgG) (antibody, V domains shown)
VH: QVQLVQSGAEVKKPGASVKVSCKASGYTFTSYYMHWVRQAPGQGLEWMGIINPSGGSTSYAQKFQGRVTMTRDTSTSTVYMELSSLRSEDTAVYYCARDTGYSYGRYYYYGMDVWGQGTLVTVSS
VL: B2 VL with G28S, N30G, S31R, E55Q, T56S, T94I, L96I, G100Q
notes: IgG format
As to B16, the binding result in experiment [1] is recorded as “binds”; in experiment [2] it was “no binding”.

B17: MAdCAM antibody Clone ID 42 of Table 7 (IgG) (antibody, V domains shown)
VH: QVQLVQSGAEVKKPGASVKVSCKASGYTLTDYYMHWVRQAPGQGLEWMGIINPSGGSTSYAQKFQGRVTMTRDTSTSTVYMELSSLRSEDTAVYYCAREEYSSSSGYFDYWGQGTLVTVSS
VL: B2 VL with N30S, D50A, N53S, E55Q, T56S, G100Q
notes: IgG format
Consider B17, for which the values for the binding result in experiment [1] and in experiment [2] were “binds” and “no binding”, respectively.

The record behind these values is patent US20200392228A1 (PANDION OPERATIONS, published 2020).
